Assay results taken from the supplement of paper PMC7125110.
± gives the standard error. Fewer inactive variants are shown than the library holds.

B1: glmS ribozyme (parent)
chain: AUAAAAGCGCCAGAACUACAGAAAUGUAGUUGACGAGGAGGAGGUUUAUCGAAUUUUCGGCGGAUGCCUCCAAA

Experiments:
Details in all cases: with glucosamine-6-phosphate
glucosamine-6-phosphate [1] = variants of: B1; test: self-cleavage kobs at 640 uM GlcN6P; higher = faster cleavage; RNA array
Outline: (§1)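 Glucosamine-6-phosphate (40 μM to 10 mM) in HEPES/KCl/Mg(OAc)2 buffer was flowed over sequenced MiSeq chips, and tiles were imaged over ~14 h. Barcoded ribozyme variants there had been transcribed in situ by E. coli RNA polymerase and were tracked through a hybridised Cy3 probe at 37 °C. One- or two-exponential decay fits to per-tile medians, normalised to baseline and to non-cleaving reference variants, gave kobs. kcat and KM came from weighted Michaelis–Menten fits across concentrations.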

glucosamine-6-phosphate [2] = variants of: B1; test: self-cleavage kobs at 2500 uM GlcN6P; higher = faster cleavage; RNA array
Outline: as §1

glucosamine-6-phosphate [3] = variants of: B1; test: self-cleavage kobs at 10000 uM GlcN6P; higher = faster cleavage; RNA array
Outline: as §1

Variant | self-cleavage kobs at 640 uM GlcN6P (glucosamine-6-phosphate [1]) [s⁻¹] | self-cleavage kobs at 2500 uM GlcN6P (glucosamine-6-phosphate [2]) [s⁻¹] | self-cleavage kobs at 10000 uM GlcN6P (glucosamine-6-phosphate [3]) [s⁻¹]
C11G A33U C58U | < 1e-05 |  | 
G9U A14U C16A G32U A36G | < 1e-05 |  | 
U30A C50A C67A C70G | 4.38e-05 ± 1.7e-05 |  | 
G41U G51C U69C | < 1e-05 | < 1e-05 | 
A39U C50G A52U G59U C67G | < 1e-05 |  | < 1e-05
A14U G44U U69C C71A | < 1e-05 |  | < 1e-05
C11G A39U U45C U49A C50U G62C U65G | < 1e-05 |  | 
G38U U69A | 0.000186 ± 9e-05 |  | 
A6C A15U G29A A53G | < 1e-05 |  | 
G43A G44U C68G | < 1e-05 | < 1e-05 | 
U30A G32A G35C U45C | < 1e-05 | < 1e-05 | 
C16A G40U U57G | < 1e-05 | < 1e-05 | 
A12C G32U | 5.84e-05 ± 2.3e-05 | 8.84e-05 ± 1.6e-05 | 0.000265 ± 5e-05
G7U A12C U49C | < 1e-05 |  | 
U31C G38A C71U | < 1e-05 |  | 
U30G U49A G66C | < 1e-05 |  | 
G37A G63A C71A | < 1e-05 | < 1e-05 | 

Variant | self-cleavage kobs at 640 uM GlcN6P (glucosamine-6-phosphate [1]) [s⁻¹] | self-cleavage kobs at 2500 uM GlcN6P (glucosamine-6-phosphate [2]) [s⁻¹] | self-cleavage kobs at 10000 uM GlcN6P (glucosamine-6-phosphate [3]) [s⁻¹]
A6G A36C G37U G40A C61A U65A | < 1e-05 | < 1e-05 | 
U30G G32A G38C U57C U65C | < 1e-05 | < 1e-05 | 
A15U C16G G37C | < 1e-05 |  | 
U31G C50A U56G U69G | 0.000115 ± 3.6e-05 | 7.11e-05 ± 1.8e-05 | 
A15C C58G C70A | 5.23e-05 ± 1.5e-05 | 4e-05 ± 2e-05 | 
G32U C58A C70G | 0.000218 ± 7.9e-05 | 0.000221 ± 5.9e-05 | 
A12U A48U C68A C70G | < 1e-05 |  | 
C11U U30G U57A C61U | < 1e-05 |  | 
C8G A36G A42U C67A | < 1e-05 | < 1e-05 | 
A14U C34U A52G | < 1e-05 | < 1e-05 | < 1e-05
A15U A52G C58U | < 1e-05 |  | 
C8G A12U G43A C67A | < 1e-05 | < 1e-05 | 
G13U U56A C71U | 0.000105 ± 1.6e-05 | 8.21e-05 ± 2.1e-05 | 
G29U U30C A52U | < 1e-05 | < 1e-05 | 
U45G U47G C71U | 0.000978 ± 0.00031 |  | 
A6C G41A U55C U65G | < 1e-05 |  | 
